Two molecules from paper PMC9859754, “Multivalent interactions facilitate motor-dependent protein accumulation at growing microtubule plus-ends” (Nature Cell Biology, 2022) can be followed below.

Holding throughout (settings): both partners purified
Test [1] deals with T1, Full-length S. pombe Mal3, unlabelled (S. pombe, UniProt Q10113 1-308).
T1 construct: Mal3 (EB homologue), Schizosaccharomyces pombe, full length; Scaffold (200 nM) in the scaffold-client assay; also the Mal3 of the cryo-ET samples; also called FL-Mal3; FLMal3; source: E. coli ER2566, purified (Talon resin, eluted with 3C protease, SEC); not shown: His8, N-terminal, cleaved
T1 sequence (looked up): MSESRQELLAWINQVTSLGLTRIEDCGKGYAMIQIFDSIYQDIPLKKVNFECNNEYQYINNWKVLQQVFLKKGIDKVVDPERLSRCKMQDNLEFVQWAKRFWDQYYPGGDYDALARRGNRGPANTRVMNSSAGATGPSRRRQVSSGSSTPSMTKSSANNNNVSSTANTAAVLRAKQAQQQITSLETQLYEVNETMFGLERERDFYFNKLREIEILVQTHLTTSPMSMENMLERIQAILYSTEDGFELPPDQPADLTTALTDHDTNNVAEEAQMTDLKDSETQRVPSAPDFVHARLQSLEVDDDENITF
The test is described as follows: scaffold-client recruitment into condensates (spinning disc confocal microscopy); scaffold condensates of 200 nM FL Mal3, 215 nM Tip1 (each tagged with 2 nM FL Mal3:mCherry) or Tea2-Alexa647, with 2 nM Mal3:GFP construct as client; 1x MRB80, 50 mM KCl, 10% PEG6k, 2 mM ATP, 1 mM GTP, 2 mM dithiothreitol, 0.5 mM β-mercaptoethanol; imaged about 30 min after mixing.

The target in test [2] is T2, Tea2-Alexa647 (S. pombe, UniProt Q1MTQ1 1-628, Alexa Fluor 647 (NHS ester labelling, sites not stated)).
T2 construct: Tea2 (kinesin-7 homologue), Schizosaccharomyces pombe, full length; also called Tea2-647; source: bacterially expressed, purified (Talon resin, eluted with 3C protease, SEC), labelled with Alexa Fluor 647 NHS ester; not shown: Z-tag, N-terminal, cleaved
T2 sequence (looked up): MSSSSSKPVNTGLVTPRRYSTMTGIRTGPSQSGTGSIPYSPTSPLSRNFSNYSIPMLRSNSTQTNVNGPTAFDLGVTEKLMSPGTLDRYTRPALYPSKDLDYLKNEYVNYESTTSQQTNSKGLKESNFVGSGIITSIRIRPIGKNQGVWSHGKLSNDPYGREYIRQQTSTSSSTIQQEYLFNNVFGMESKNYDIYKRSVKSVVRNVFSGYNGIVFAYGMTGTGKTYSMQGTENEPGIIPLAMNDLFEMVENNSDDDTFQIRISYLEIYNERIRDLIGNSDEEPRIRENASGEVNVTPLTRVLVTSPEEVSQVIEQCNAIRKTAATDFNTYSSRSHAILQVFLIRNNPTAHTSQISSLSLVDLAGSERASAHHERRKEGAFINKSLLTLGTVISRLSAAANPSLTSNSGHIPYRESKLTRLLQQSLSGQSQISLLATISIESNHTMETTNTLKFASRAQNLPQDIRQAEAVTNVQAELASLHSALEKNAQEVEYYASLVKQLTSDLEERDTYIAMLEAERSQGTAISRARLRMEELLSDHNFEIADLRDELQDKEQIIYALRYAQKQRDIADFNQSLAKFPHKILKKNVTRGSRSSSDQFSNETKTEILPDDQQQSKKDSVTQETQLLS
The test is described as above.

The target of test [3] is T2, Tea2-Alexa647. As to the kind of experiment: TIRF microscopy of purified fluorescent proteins on microtubules; plus-end-tracking reconstitution without PEG: 200 nM Mal3 or Mal3 construct, 20 nM Tea2, 150 nM Tip1 together on dynamic microtubules grown from surface-bound GMPCPP seeds; MRB80, 50 mM KCl, 14.5 µM tubulin, 0.5 µM rhodamine tubulin, 1 mM GTP, 2 mM ATP, 0.1% methylcellulose.

B1: Full-length Mal3:GFP (natural protein, S. pombe, UniProt Q10113 1-308, looked up)
chain: T1 sequence (looked up)
notes: Mal3 (EB homologue), Schizosaccharomyces pombe, full length; source: E. coli ER2566, purified (Talon resin, eluted with 3C protease, SEC); not shown: His8, N-terminal, cleaved
With B1, the binding result (in test [1]; with Tea2-Alexa647 [2]) was “binds” throughout.

B2: Mal3-Alexa488 (natural protein, S. pombe, UniProt Q10113 1-308, looked up)
chain: T1 sequence (looked up)
modifications: Alexa Fluor 488 (TFP ester labelling, sites not stated)
notes: Mal3 (EB homologue), Schizosaccharomyces pombe, full length; source: E. coli ER2566, purified (Talon resin, eluted with 3C protease, SEC), labelled with Alexa Fluor 488 TFP ester; not shown: His8, N-terminal, cleaved
For the molecule B2, in the test with Tea2-Alexa647 [3], the binding result is reported as “binds”.
